The source of these data is article PMC8349896 (Molecular cell, 2021).

Data set [1] concerns the molecule itself. The data set can be described thus: SEC. (In general: In gel filtration, larger molecules generally elute earlier.)
The target of data set [2] is T1, gp16-C (bacteriophage T7, UniProt P03726 275-1318).
T1 sequence: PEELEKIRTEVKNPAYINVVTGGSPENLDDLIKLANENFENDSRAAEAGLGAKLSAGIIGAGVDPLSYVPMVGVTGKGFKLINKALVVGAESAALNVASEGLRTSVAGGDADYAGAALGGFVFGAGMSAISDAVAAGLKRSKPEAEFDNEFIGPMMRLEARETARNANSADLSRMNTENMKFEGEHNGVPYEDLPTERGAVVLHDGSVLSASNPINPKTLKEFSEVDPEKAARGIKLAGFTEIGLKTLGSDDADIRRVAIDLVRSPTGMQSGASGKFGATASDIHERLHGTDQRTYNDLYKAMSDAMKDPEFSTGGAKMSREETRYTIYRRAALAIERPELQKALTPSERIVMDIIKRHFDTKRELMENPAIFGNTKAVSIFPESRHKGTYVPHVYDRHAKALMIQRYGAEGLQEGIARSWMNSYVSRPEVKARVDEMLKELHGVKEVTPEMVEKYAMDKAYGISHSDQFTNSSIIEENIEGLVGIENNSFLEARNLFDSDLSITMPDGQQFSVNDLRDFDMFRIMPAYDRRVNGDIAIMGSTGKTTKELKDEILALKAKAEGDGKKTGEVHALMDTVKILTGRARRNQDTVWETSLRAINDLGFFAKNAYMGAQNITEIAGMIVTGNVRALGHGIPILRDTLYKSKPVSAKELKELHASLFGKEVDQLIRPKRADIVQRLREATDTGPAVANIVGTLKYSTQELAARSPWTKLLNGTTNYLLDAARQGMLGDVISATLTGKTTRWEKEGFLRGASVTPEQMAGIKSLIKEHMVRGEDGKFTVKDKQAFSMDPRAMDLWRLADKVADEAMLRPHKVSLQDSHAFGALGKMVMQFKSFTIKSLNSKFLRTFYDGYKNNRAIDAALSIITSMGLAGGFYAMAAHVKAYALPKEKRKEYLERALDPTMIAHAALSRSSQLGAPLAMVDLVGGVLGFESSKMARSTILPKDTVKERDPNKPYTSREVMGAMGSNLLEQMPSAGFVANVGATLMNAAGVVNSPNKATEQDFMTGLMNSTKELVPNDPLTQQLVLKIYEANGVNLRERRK
The data set can be described thus: EMSA.

Data set [3] concerns the target T2, gp16-N (bacteriophage T7, UniProt P03726 1-228).
T2 sequence: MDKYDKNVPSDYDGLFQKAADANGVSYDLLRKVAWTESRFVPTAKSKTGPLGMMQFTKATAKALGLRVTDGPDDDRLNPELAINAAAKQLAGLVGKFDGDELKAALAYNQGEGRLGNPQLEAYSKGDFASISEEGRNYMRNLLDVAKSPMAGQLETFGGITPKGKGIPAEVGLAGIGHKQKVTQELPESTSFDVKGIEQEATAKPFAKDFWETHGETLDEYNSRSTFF
Nature of the data set: EMSA.

The target of data set [4] is T3, bacteriophage T7 ejection protein gp15, full length (bacteriophage T7, UniProt P03725 1-747).
T3 sequence (looked up): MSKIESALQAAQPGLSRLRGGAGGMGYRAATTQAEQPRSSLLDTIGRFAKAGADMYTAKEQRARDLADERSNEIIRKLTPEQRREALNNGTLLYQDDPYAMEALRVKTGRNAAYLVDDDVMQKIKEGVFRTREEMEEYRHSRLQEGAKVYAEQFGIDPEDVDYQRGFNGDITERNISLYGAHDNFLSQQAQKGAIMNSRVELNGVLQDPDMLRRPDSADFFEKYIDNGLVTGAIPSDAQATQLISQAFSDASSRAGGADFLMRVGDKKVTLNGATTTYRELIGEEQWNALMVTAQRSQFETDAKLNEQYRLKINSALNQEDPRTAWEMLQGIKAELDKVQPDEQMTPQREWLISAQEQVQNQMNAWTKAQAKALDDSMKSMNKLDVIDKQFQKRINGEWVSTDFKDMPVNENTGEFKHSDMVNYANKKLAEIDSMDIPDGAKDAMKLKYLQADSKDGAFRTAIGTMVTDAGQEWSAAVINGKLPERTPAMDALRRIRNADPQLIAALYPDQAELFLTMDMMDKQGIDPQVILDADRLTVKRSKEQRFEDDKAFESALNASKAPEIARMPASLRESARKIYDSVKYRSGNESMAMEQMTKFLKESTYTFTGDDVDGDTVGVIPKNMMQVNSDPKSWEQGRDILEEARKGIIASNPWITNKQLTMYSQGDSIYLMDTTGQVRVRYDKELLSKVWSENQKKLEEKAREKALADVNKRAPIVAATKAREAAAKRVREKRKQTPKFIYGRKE
The data set can be described thus: native gel or EMSA.

B1: bacteriophage T7 ejection protein gp14 (natural protein, UniProt P03724 1-196, looked up)
chain: MCWAAAIPIAISGAQAISGQNAQAKMIAAQTAAGRRQAMEIMRQTNIQNADLSLQARSKLEEASAELTSQNMQKVQAIGSIRAAIGESMLEGSSMDRIKRVTEGQFIREANMVTENYRRDYQAIFAQQLGGTQSAASQIDEIYKSEQKQKSKLQMVLDPLAIMGSSAASAYASGAFDSKSTTKAPIVAAKGTKTGR
Take B1: the binding result in data set [1] is “binds”.

B2: Cy3-dsDNA 24-mer (dsDNA)
DNA 1: GCACTGCAGTAACTTGTCAGTCAT
DNA 2: ATGACTGACAAGTTACTGCAGTGC
For B2, the binding result in data set [2] is on record as “binds”; in data set [3] it was “no binding”.

B3: gp16-N (bacteriophage T7 gp16 residues 1-228) (domain or fragment, UniProt P03726 1-228, looked up)
chain: T2 sequence
B3: the binding result in data set [4] is listed as “binds”.
